Common to all, as to test: BLI
(In general: In BLI a coated tip is dipped into the sample, and binding shifts an interference pattern.)

Assay [1] addresses WRAIR-5020 (rhesus macaque).
Assay [2] addresses WRAIR-5021 (rhesus macaque).
For assay [3], the target named is WRAIR-5011 (rhesus macaque).
For assay [4], the target named is WRAIR-5004 (rhesus macaque).
WRAIR-5004 (rhesus macaque), sequence (VH, as listed by the source, chain 1 of 2): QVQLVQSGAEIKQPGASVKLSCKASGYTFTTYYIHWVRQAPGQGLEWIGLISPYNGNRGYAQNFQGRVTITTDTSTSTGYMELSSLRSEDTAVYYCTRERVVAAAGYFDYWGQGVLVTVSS
WRAIR-5004 (rhesus macaque), sequence (VL, as listed by the source, chain 2 of 2): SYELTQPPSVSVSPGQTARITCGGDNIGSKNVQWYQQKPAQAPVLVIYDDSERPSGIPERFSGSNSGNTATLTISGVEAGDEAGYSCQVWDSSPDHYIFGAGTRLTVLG

WRAIR-5020 (rhesus macaque), sequence (VH, as listed by the source, chain 1 of 2): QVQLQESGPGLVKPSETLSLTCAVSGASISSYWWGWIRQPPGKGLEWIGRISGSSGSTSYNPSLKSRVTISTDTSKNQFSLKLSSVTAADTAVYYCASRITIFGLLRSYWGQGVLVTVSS
WRAIR-5020 (rhesus macaque), sequence (VL, as listed by the source, chain 2 of 2): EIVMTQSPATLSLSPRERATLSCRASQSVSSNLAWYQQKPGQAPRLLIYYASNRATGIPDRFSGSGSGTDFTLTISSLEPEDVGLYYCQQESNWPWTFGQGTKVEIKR
WRAIR-5011 (rhesus macaque), sequence (VH, as listed by the source, chain 1 of 2): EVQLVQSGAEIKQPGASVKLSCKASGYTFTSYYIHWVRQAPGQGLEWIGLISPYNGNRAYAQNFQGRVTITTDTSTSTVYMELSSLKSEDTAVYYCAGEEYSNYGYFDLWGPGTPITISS
WRAIR-5011 (rhesus macaque), sequence (VL, as listed by the source, chain 2 of 2): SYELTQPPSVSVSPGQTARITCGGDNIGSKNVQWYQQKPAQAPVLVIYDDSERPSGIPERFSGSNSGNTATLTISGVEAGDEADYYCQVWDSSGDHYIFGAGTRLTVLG
WRAIR-5021 (rhesus macaque), sequence (VH, as listed by the source, chain 1 of 2): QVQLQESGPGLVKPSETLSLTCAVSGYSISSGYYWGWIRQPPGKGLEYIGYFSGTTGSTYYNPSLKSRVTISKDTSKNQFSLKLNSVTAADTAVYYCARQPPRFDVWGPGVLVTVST
WRAIR-5021 (rhesus macaque), sequence (VL, as listed by the source, chain 2 of 2): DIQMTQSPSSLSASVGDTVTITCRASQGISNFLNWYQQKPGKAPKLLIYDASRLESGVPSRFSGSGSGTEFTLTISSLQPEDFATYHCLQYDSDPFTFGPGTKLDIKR

The Kd is the equilibrium constant for the complex coming apart. A lower Kd goes with a tighter complex. Consider “SARS-CoV-2 Delta RBD (from UniProt P0DTC2 331-527) (domain or fragment)”, for which the dissociation constant Kd in assay [1] was determined as 108 nM; in assay [2] it was 3.62 nM; in assay [3], 0.48 nM; in assay [4] it was 2.44 nM.

Source of the values: paper PMC10764318.
